The supplement of paper PMC12636428

Test system: Saccharomyces cerevisiae
Assay: transcriptional activation domain activity (GFP:mCherry ratio, weighted mean of sorted bins, harmonized to initial dataset scale) (arbitrary fluorescence ratio units); higher = stronger transcriptional activation
Settings: beta-estradiol 1 µM; induction time 4 h
Outline: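 The activation activity of each tile is the read-weighted mean of bin median fluorescence, averaged across its barcodes and mapped linearly onto the scale of the initial dataset. Tiles were fused to an estradiol-inducible synthetic transcription factor, barcoded, and integrated at URA3 in yeast diploids carrying a GFP reporter. Induction used 1 uM beta-estradiol in SC for 4 hours at 30 °C, after which cells were sorted into 8 GFP:mCherry bins, and any tile with fewer than 50 reads was dropped.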

Sequence | transcriptional activation domain activity
LLLLLVYSNVALLVYHAPTYTRPFDMALIHAPLRFFMILPLSLLFPYSLFITL | 57700
LLLLPVSFLVLSGIYSPFILILFDSPWPVLYVLIYFPLCYFVLSPYIIFALSP | 51200
LLLLYGLTWAFNLIACMLTSTNNGNMVSCILTNFNCIIVYTITKIILYLYFVE | 43200
LLLPELFFFHLYWALIAFRFIPLLTLLRGMGYCLFFSLLFFFLFFSLFSVLFT | 53000
LLLPFVVRRFGCWVCGFYLVLLFFIFPLLLYVVLSSCFSILFTSPFIFYFSSF | 61200
LLLPLLLPVLHIFPFLIDFLLPVLDLLLALLVLLPALLDLLLVLLVLLPPLLP | 56100
LLLRGSTFSFLLSSFLHFFIALVNCMLYTPPKFFKNPFCMFILFYLSYLLWGT | 66000
LLLRSFKTFQLWTGDQCLEYLGDKFRVVLGLPDDWTNKDLGYWLLSKLVLVHL | 73000
LLLVHGRWSYQRVADMHSNFFYKNVIWTFALFWYLPFNSFDATYLYQYTFILL | 47600
LLLYLLQLVQALKYEHISTEANRDATQKSSLARFLIARAVDSFMLGNYFYWYL | 59400
LLMGLYLSEICMIGLFVLRDAFGPMVLMVMFFVLSILVHLSLADAFSPLLYNL | 52200
LLMYTLFYMISEIFYSVAYDAHYFMFDPISVALVQCPMFACVVISVLYGHIWS | 57800
LLNIGNGGVPKNTNVHLGAQFFYLSFLEFILSCLTLCSRSWAWFHVVCVVHLR | 62300
LLNNELFQGPSLSDEVTDWFGASEDIGLEFVEPWTELIEQRYMQCGDGDNNNF | 151000
LLNVHVCVIYFVGWIVSLFQFCQIAIQQPTLDWVHCLPYILRVLLGFDLVYVT | 66100
LLPGPPFPFPPLLLFFLVVFLSCSFFELSFMFLFFVYFFFISLFFCIFFFDNH | 34700
LLPKSFPYSFFILFFFFLNFLLSSCFFLLFFPSPIRLSPSFTLVVIFHYFLRF | 51500
LLPLFFASIGFAIVSMILIFSSNVVCLLICPHQALSRIVASYLLRHDPKYLCA | 71600
LLQKVAIQHYHTGLRALIPWSQLTVLVIASIPSQQCVRVLALAVNLLYCEFAI | 67000
LLQLWYMHKSLVLADPTLVCPLAFCFYNLSSIINGLVYFDQFAFLSTLHLLLV | 25400
LLQMDKAGFVKDEITDVFALVVCRNLSLFHICAYILNVYRNYIMMVLEALRAQ | 64800

Sequence | transcriptional activation domain activity
LLQSLKRTTEIPVKDAFLGLLRADACFCIYRMLRCTNVNLPICRLTGLLDVIR | 61400
LLQSSKEDIPFINANLAFPDDNSTNIQLQPFSESQSQNKFDYDMFFRDSSKEG | 80700
LLRALSDLRRWRRKYTMLLELPDPFKSQRQHAHEYQLAIPLVEEAVLSFFLFL | 57600
LLRAYGRCLAPFPELVTQAYTWFRSWGTSEFRPLTVALLLVTYMQRSPEIKAP | 70700
LLRFSLLLMFPWLVCLVSCFPCFPLLLPTSCATRFRFLHPFLTVSLLSLLFLC | 56800
LLRLLQCVFVAALLLVSKLCTFTEMMPDVVLRQFLVVAIDILFYGKLTIVPWN | 54600
LLRQQLVYTNHIYLYYFAIISNTLIRFIWILYIPARGPDIILRTFIAALFEML | 54200
LLRRIMRYRNMHLLLSYAVELGFLRAIILCGRPSLSKVHHHVRFFLRDLLPAS | 38800
LLRSRAYDDPAVFRIISALFQVPMRHKKNSVRGLLCVVWRVITWVYFQPRLPW | 54600
LLSEESLRTMGLRTVKDILLRCASERAILTLVDFPLRVLVMVAQIRTGLWVRN | 36800
LLSGRLFLGFYAAKNILRLARAFAATRQVIYDLGKFYRSPLTAPDRIAHLFPS | 47000
LLSLPNYFGIVFQVLKPEITTMYIAALDLCNLHTLYKAILFTLLALTWLILVF | 50500
LLSVCVGKNCTVPSPLNSFDRSFYPIGCTNLSNDIPGYSFLNDAMSEIHTFGD | 82000
LLTEHFLLRVFAVFTAYIVELWMLKVAYLGYYFQLRQYLSEKSRMIYIGTCVY | 63300
LLTFKLHRLFVVSQKMEDEGVRKLILHLTCCLLPKPNRDSMEAICLFLRWVAS | 83200
LLTFLLFSIFFFERLPHLYRSISLLLRPCFRLNIHFIFLILSRVFMYGSYGSF | 55300
LLTFNLEVKRIWTLRWKLPKYLFVLNRYILPPFLFFEAFSNITYNLGKHVSRI | 50800
LLTGSSALLLPVIWPRLSASLRFPVVLLLPLPYIFTYLCVYPPTPFSPHITPT | 59300
LLTWMPTVAWPMYNRCFGSLIWIPIRYELIAIVILSIITFFFLFLAALISIQL | 43300
LLTYKLYRLWIVAAKITDDEKRKQCLHLTCCLLPKCHRDSLEILFYFLKWAGT | 50700
LLVANLTILDTFGLEESAIRIWNVCKPLGHLGQNALLILMLRLKDTMLIPWPL | 72200

Sequence | transcriptional activation domain activity
LLVFGFEEHFFFFIFFFLVDGSAFCMFCDVFHFYVCCYVPHLLCLTLVIAGVS | 73000
LLVFICAAPYAAYREGNNLIVSSYFCSSFLVFNFYMRLDCGLSWMKHTLLFIV | 44700
LLVLFACQIICETIVIGITSNAFSVVVLPPYFTGCLPGNIKPFAWVYWLPMLL | 59400
LLVLLLVLLLVLLLILLLILLILLVYLLLLLLLVLLFFLLLLLLLFTFILHFL | 46200
LLVLLVFVADTLHMMGTTQFYWSMLVLCRRSDAAMCEAGLSWGSSISFPMNYV | 42600
LLVLYGLTWAFNLISCMLISTNNGNYISCILGLFNCVFVYTLTKMILYLYFIE | 57000
LLVLYLVLSYLKHSHMEGLGEFMIKFFEECNVDPFSKVFRGGHYKESVFEGVY | 76100
LLVRIIGRCGFLGASFQVALLSDYISIMTLHIYWFYAVAARIYFWQLSILHSL | 43100
LLVRLRKEYYLALFIFWRVGYNVLLGLMLRSQSDWNLLVRFAKRYGFGQNAGK | 48800
LLVTLMQVPDTDQVVLFNKVLSVIVLVMAHHHELGGPRFDQRPFLRLFSSILA | 43800
LLWFYFLFLFCIFCWWLRYASSLVPNICHIHVIHDLADAFMHIRFVLFISILS | 72300
LLWGLALVCAFAFGRRRRRWWWWWWWWWLLLLLLLFIFFFWICLSLRFLLWTR | 54100
LLWSYLLPLFFSLLNELCKRFLPFPLFPLFFYIPCAFYPSPTLSVCSHPLLFI | 61500
LLYALMNFSRIFSSGHSFGRKIIMFFEFVYLLLNFLFGFVSLGHFYFAFHFLI | 37000
LLYCNQIYLICPYVVNNKVQRQVSPRDMLIVLEAALKITSIYKILTYVYFENI | 58700
LLYHYPMCSVCVLCCVLFFSHLFSIFHVLSVLCCTFFWQCLSFFHYLIPLFLY | 62300
LLYLCRDILMAVFAWSLAIQIDPFFTNVVIRSILSPTIAKTFRWMSWCVYWWF | 57700
LLYLGCRWCTLIAIIFHFLGFDGGHRIDCQFMGYFSFTCASALIVLRIVAFWA | 66900
LLYLLLLLRKVSVMLCFIDLLIFGIFLCFLSLLLFLSLFFLFLFLLVFSEEFF | 37600
LLYLPAVLEIYQDVHRSDLSSTVSWETFVAKIFEWMELQYVWPIAGKLLVTIF | 74800
LLYVMALLMWLFAIAILFPPSALTVVRHDFLEQIPQVVPNLDVAYGRNIEGVK | 41800

Sequence | transcriptional activation domain activity
LMDSGGPDVRPPPKRARKAINCEPCRNSKLKCDRNRPCSSCVLRGTTSQCYQG | 43700
LMFLVLIVSNLRLMIENFRKYGVLICIRCHDYRRQDVVYGSILYFLVPCHLFV | 73100
LMGLDELHLRVLSSSSDDPQERLNADKVLKLLTKRRHWVLVVLLLGNVIVNES | 35800
LMILMIINFIILNIPVAVILLIYFVFKIGFYVFIWKRIRFISILLRATVSHLR | 62900
LMLCAGHGILIALVEQSGIDIKPILVFCLITYTLCQIGMCYSCYLYDFILLFF | 50100
LMLQRLDIIRQILYLYRDPHLQIVLNRYYKSFNRRKIFLMNPVINALSNMPYF | 47500
LMVDEPFEHRLFFLLLFQEGNVCQAQSFQLSGFECMCMVSSQFFFLVWVLYFM | 45600
LNCLDLSGIDCCLFFMALRLEVLYSWFLFLAWQLLCTHPALLAFAFGFLGFLI | 51600
LNDDDIEKILQPNDIFTTDRTDASTTSSTAIEDIINPSLDPQSAASPVPSSSF | 81400
LNGRRMMHEPLVYDMYEPQTPLIIIARVGVRLVFIVAKIGELPHCFIDEPPQQ | 23200
LNILILGSVLTDFDTLLRPETMQWNPPLGVWLIWWMQWQMFIPLLILQFLNLY | 55400
LNILTSVWAVPVVITLIQALLVMRVCMLFCFNLRVTLCLWALLFASATVSVVL | 51200
LNKVCCIFCFLFSFYLLSFYSPFYFCFAFILLLSFFFFFFFFLLLLYFLLLSI | 48600
LNLGWRLMHFKVHFARIGVIVHGPQYGELTDWDCSSAHRGDILGFPKAQLLFE | 25100
LNLRRPLAFGGMATLLTYLIVPIYFSGVCYRLRLTLPPFLFLILRVSFELFVL | 67800
LNMLGLALAASGHFPYAVKYDGAIVVANFNMAILMRNEVFGRLLYLLVNTLFA | 71600
LNPDYIVGLSSLILVMCYIYKACYVSLLLSMHPLILLCMLCSSFTFIAIIVMI | 47700
LNRAARRSTPASRTRREGAIGARVRRRERESERARARTKMGRRSCLRVSAAAT | 61600
LNRWQKLLSWDVAYQIEGMLRRLLVDVKEMLSLMARIRAMILRYDSHYTAAFL | 71500
LNTFLDSFIFQLFPMVADLWIAAAYFFLYFDAFYSLIIIATTWLYIYITIYMA | 58800
